Reference: the supplement of paper PMC9112550, “Optimization of the antimicrobial peptide Bac7 by deep mutational scanning” (BMC Biology, 2022)

Tested on: Escherichia coli TOP10
Test: shrunken log2 fold change of peptide-encoding DNA abundance (4.5 h post-induction vs induction); higher = less antimicrobial activity (less host growth inhibition)
Settings: time post-induction: 4.5 h; library: site-saturation at positions 5, 18, 19, 20
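Also: peptides expressed intracellularly from a pBAD plasmid library in pooled LB shake-flask culture, induced with 0.3% L-arabinose, DNA abundance read by NGS, three biological replicates, DESeq2 with apeglm shrinkage.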

Sequence	shrunken log2 fold change
RRIRPRPPRLPRPRPRPQFTPRP	-0.285
RRIRRRPPRLPRPRPRPGCNPRP	0.327
RRIRCRPPRLPRPRPRPDYSPRP	-0.179
RRIRMRPPRLPRPRPRPWDSPRP	-0.152
RRIRKRPPRLPRPRPRPRCNPRP	0.196
RRIRERPPRLPRPRPRPFMGPRP	-0.0195
RRIRARPPRLPRPRPRPQFFPRP	0.0526
RRIRARPPRLPRPRPRPLCQPRP	0.42
RRIRARPPRLPRPRPRPNTEPRP	0.154
RRIRLRPPRLPRPRPRPVRHPRP	0.19
RRIRFRPPRLPRPRPRPESFPRP	0.0272
RRIRRRPPRLPRPRPRPTACPRP	0.636
RRIRQRPPRLPRPRPRPYCIPRP	-0.0416
RRIRTRPPRLPRPRPRPYKCPRP	-0.372
RRIRCRPPRLPRPRPRPDIPPRP	-0.331
RRIRDRPPRLPRPRPRPTLYPRP	0.26
RRIRPRPPRLPRPRPRPYAVPRP	-0.712
RRIRWRPPRLPRPRPRPMFMPRP	-0.209
RRIRRRPPRLPRPRPRPWLGPRP	0.353
RRIRGRPPRLPRPRPRPVDAPRP	0.395
RRIRARPPRLPRPRPRPTPGPRP	0.826
RRIRTRPPRLPRPRPRPDNRPRP	-0.0132
RRIRCRPPRLPRPRPRPVSWPRP	0.49
RRIRPRPPRLPRPRPRPEVAPRP	0.212
RRIRMRPPRLPRPRPRPAKHPRP	0.542

Sequence	shrunken log2 fold change
RRIRQRPPRLPRPRPRPDNKPRP	-0.532
RRIRPRPPRLPRPRPRPSIWPRP	-0.11
RRIRNRPPRLPRPRPRPIFQPRP	-0.0287
RRIRMRPPRLPRPRPRPDSMPRP	0.025
RRIRSRPPRLPRPRPRPVVFPRP	0.11
RRIRQRPPRLPRPRPRPRVDPRP	0.241
RRIRMRPPRLPRPRPRPSWEPRP	0.302
RRIRRRPPRLPRPRPRPVPQPRP	0.28
RRIRDRPPRLPRPRPRPVRIPRP	0.18
RRIRQRPPRLPRPRPRPTTEPRP	0.26
RRIRHRPPRLPRPRPRPVMMPRP	-0.123
RRIRARPPRLPRPRPRPGWVPRP	0.29
RRIRPRPPRLPRPRPRPMINPRP	-0.179
RRIRDRPPRLPRPRPRPIVPPRP	-0.142
RRIRTRPPRLPRPRPRPCFEPRP	-0.0858
RRIRSRPPRLPRPRPRPHFRPRP	-0.197
RRIRLRPPRLPRPRPRPNNIPRP	-0.559
RRIRERPPRLPRPRPRPSIYPRP	-1
RRIRPRPPRLPRPRPRPLFMPRP	-0.38
RRIRCRPPRLPRPRPRPMEYPRP	-0.17
RRIRMRPPRLPRPRPRPVPLPRP	-0.0409
RRIRCRPPRLPRPRPRPCPLPRP	-0.433
RRIRWRPPRLPRPRPRPVNFPRP	0.0606
RRIRMRPPRLPRPRPRPTGKPRP	0.562
RRIRWRPPRLPRPRPRPPAPPRP	1.03

Sequence	shrunken log2 fold change
RRIRLRPPRLPRPRPRPKPWPRP	0.387
RRIRCRPPRLPRPRPRPIHMPRP	0.109
RRIRIRPPRLPRPRPRPISMPRP	0.0215
RRIRERPPRLPRPRPRPMAEPRP	0.0131
RRIRVRPPRLPRPRPRPDRKPRP	0.0279
RRIRMRPPRLPRPRPRPHMFPRP	-0.222
RRIRWRPPRLPRPRPRPGTYPRP	-0.127
RRIRSRPPRLPRPRPRPYCGPRP	-0.726
RRIRKRPPRLPRPRPRPVYLPRP	-0.326
RRIRHRPPRLPRPRPRPWEPPRP	-0.0767
RRIRRRPPRLPRPRPRPYESPRP	0.0181
RRIRSRPPRLPRPRPRPKTIPRP	-0.174
RRIRMRPPRLPRPRPRPPTFPRP	0.122
RRIRYRPPRLPRPRPRPINKPRP	-1.43
RRIRIRPPRLPRPRPRPMPHPRP	-0.0728
RRIRPRPPRLPRPRPRPVTIPRP	-0.344
RRIRKRPPRLPRPRPRPFRRPRP	0.0327
RRIRSRPPRLPRPRPRPCMMPRP	0.0683
RRIRWRPPRLPRPRPRPPKKPRP	1.27
RRIRCRPPRLPRPRPRPAHDPRP	0.031
RRIRWRPPRLPRPRPRPARNPRP	0.256
RRIRLRPPRLPRPRPRPIFHPRP	-0.192
RRIRTRPPRLPRPRPRPDYHPRP	-0.699
RRIRCRPPRLPRPRPRPKKIPRP	0.00547
RRIRSRPPRLPRPRPRPDHQPRP	-0.263

Sequence	shrunken log2 fold change
RRIRDRPPRLPRPRPRPPPEPRP	0.48
RRIRQRPPRLPRPRPRPRQGPRP	0.0279
RRIRERPPRLPRPRPRPCIAPRP	-0.753
RRIRCRPPRLPRPRPRPDQSPRP	0.112
RRIRFRPPRLPRPRPRPMLNPRP	-0.574
RRIRMRPPRLPRPRPRPTSSPRP	0.148
RRIRVRPPRLPRPRPRPPPRPRP	1.03
RRIRDRPPRLPRPRPRPDLHPRP	-0.0715
RRIRHRPPRLPRPRPRPVWNPRP	-0.402
RRIRPRPPRLPRPRPRPSNLPRP	-0.823
RRIRVRPPRLPRPRPRPQEQPRP	0.0925
RRIRPRPPRLPRPRPRPFNGPRP	-0.014
RRIRERPPRLPRPRPRPNRCPRP	-0.00988
RRIRFRPPRLPRPRPRPINKPRP	-0.582
RRIRWRPPRLPRPRPRPVFGPRP	0.159
RRIRGRPPRLPRPRPRPWNFPRP	-0.289
RRIRCRPPRLPRPRPRPEHIPRP	-0.218
RRIRWRPPRLPRPRPRPFRKPRP	-0.351
RRIRLRPPRLPRPRPRPGCNPRP	-0.162
RRIRARPPRLPRPRPRPNRYPRP	-0.191
RRIRKRPPRLPRPRPRPRVLPRP	0.498
RRIRMRPPRLPRPRPRPKDAPRP	2.02
RRIRARPPRLPRPRPRPTDCPRP	0.0381
RRIRERPPRLPRPRPRPVTGPRP	-0.0257
RRIRKRPPRLPRPRPRPFHWPRP	0.111

Sequence	shrunken log2 fold change
RRIRHRPPRLPRPRPRPRQYPRP	-0.185
RRIRVRPPRLPRPRPRPGQLPRP	0.208
RRIRHRPPRLPRPRPRPIIIPRP	-0.247
RRIRKRPPRLPRPRPRPTVMPRP	0.247
RRIRIRPPRLPRPRPRPKFNPRP	-1.09
RRIRRRPPRLPRPRPRPTSCPRP	-0.108
RRIRLRPPRLPRPRPRPDAQPRP	0.34
RRIRPRPPRLPRPRPRPQAGPRP	0.00187
RRIRWRPPRLPRPRPRPVAPPRP	0.522
RRIRWRPPRLPRPRPRPYQTPRP	-0.223
RRIRPRPPRLPRPRPRPCNEPRP	-0.16
RRIRFRPPRLPRPRPRPVGGPRP	0.405
RRIRMRPPRLPRPRPRPLWAPRP	0.509
RRIRTRPPRLPRPRPRPIWCPRP	-0.0116
RRIRKRPPRLPRPRPRPEDVPRP	-0.04
RRIRVRPPRLPRPRPRPNIAPRP	0.249
RRIRDRPPRLPRPRPRPHHCPRP	-0.126
RRIRARPPRLPRPRPRPPHLPRP	2.23
RRIRQRPPRLPRPRPRPEIHPRP	-0.0415
RRIRVRPPRLPRPRPRPKSVPRP	-0.00455
RRIRKRPPRLPRPRPRPLSGPRP	-0.0828
RRIRPRPPRLPRPRPRPPVFPRP	0.308
RRIRLRPPRLPRPRPRPDWRPRP	0.0715
RRIRERPPRLPRPRPRPQLRPRP	-0.00323
RRIRLRPPRLPRPRPRPMKWPRP	0.0101

Sequence	shrunken log2 fold change
RRIRERPPRLPRPRPRPEGSPRP	0.0172
RRIRARPPRLPRPRPRPTVHPRP	2.45
RRIRLRPPRLPRPRPRPPTQPRP	0.376
RRIRDRPPRLPRPRPRPACGPRP	0.684
RRIRRRPPRLPRPRPRPFWDPRP	-0.0897
RRIRRRPPRLPRPRPRPYGLPRP	-0.0176
RRIRTRPPRLPRPRPRPYANPRP	-0.00264
RRIRYRPPRLPRPRPRPKGVPRP	0.028
RRIRYRPPRLPRPRPRPQQHPRP	-0.278
RRIRARPPRLPRPRPRPWLVPRP	0.0219
RRIRWRPPRLPRPRPRPATMPRP	0.0187
RRIRLRPPRLPRPRPRPKQLPRP	-0.0685
RRIRPRPPRLPRPRPRPSRHPRP	-0.0917
RRIRPRPPRLPRPRPRPDLGPRP	0.215
RRIRDRPPRLPRPRPRPTYEPRP	0.127
RRIRLRPPRLPRPRPRPFVGPRP	4.94e-06
RRIRPRPPRLPRPRPRPPSGPRP	0.527
RRIRWRPPRLPRPRPRPWYKPRP	-0.1
RRIRPRPPRLPRPRPRPQEAPRP	0.0203
RRIRARPPRLPRPRPRPMYEPRP	-0.0125
RRIRIRPPRLPRPRPRPFSKPRP	-0.05
RRIRSRPPRLPRPRPRPAGHPRP	-0.794
RRIRERPPRLPRPRPRPNDWPRP	-0.133
RRIRGRPPRLPRPRPRPPIRPRP	0.849
RRIRVRPPRLPRPRPRPATFPRP	-0.387
